Literature values in patent publication US20220280635A1, “PARTICLES FOR STIMULATING AN IMMUNE RESPONSE AGAINST VIRAL INFECTIONS” (FINNCURE OY, priority 2020, published 2022).

Target: ACE2 (Homo sapiens, UniProt Q9BYF1)
Settings: simulation, ref [8]

Chain of ACE2 (Q9BYF1 18-805): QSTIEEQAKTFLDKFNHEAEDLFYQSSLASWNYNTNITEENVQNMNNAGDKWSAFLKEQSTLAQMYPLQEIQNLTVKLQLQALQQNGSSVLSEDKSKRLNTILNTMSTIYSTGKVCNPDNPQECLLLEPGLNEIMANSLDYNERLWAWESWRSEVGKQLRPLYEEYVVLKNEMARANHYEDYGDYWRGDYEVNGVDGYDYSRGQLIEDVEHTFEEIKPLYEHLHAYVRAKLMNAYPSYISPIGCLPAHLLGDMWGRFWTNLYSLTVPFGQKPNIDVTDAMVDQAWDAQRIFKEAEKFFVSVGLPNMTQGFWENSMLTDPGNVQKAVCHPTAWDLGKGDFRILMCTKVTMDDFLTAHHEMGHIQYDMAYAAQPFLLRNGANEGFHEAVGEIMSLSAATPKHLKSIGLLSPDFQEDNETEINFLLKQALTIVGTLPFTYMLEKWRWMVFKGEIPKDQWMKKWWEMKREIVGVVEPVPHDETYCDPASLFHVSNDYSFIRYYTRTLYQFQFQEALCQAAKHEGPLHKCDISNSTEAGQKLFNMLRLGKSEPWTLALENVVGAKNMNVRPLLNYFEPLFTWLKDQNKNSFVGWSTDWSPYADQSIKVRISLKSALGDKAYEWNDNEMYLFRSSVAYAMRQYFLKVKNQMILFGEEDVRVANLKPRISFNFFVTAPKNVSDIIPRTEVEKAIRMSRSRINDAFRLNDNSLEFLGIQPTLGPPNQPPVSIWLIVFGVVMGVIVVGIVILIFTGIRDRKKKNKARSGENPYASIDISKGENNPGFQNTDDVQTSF

## YKYNYI: alternative synthetic hexapeptide variant (Potential alternative synthetic hexapeptide variant)
  binding affinity towards the ACE2 receptor compared with YKYRYL: even stronger binding affinity

## YKYNYL: alternative synthetic hexapeptide variant (Potential alternative synthetic hexapeptide variant)
  binding affinity towards the ACE2 receptor compared with YKYRYL: even stronger binding affinity
